Like-named read-outs stand apart in the source and are kept apart here.

The target of data set [1] is T1, IRF-3 5D (UniProt Q14653 1-427, S396D;S398D;S402D;T404D;S405D).
T1 sequence: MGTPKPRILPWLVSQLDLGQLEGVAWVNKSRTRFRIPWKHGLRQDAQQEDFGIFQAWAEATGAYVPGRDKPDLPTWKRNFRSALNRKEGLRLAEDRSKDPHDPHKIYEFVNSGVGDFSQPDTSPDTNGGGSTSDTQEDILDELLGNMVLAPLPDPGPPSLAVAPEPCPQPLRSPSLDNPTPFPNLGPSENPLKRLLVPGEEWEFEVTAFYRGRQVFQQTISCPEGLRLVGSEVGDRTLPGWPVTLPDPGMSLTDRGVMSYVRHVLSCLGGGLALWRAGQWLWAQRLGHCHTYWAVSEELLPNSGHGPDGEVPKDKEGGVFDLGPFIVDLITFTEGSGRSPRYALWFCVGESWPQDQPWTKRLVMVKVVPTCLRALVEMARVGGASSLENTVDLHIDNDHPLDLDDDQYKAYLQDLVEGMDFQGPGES
The experiment in a line: fluorescence anisotropy.

Data set [2] concerns the target T2, IRF-3 WT (UniProt Q14653 1-427).
T2 sequence: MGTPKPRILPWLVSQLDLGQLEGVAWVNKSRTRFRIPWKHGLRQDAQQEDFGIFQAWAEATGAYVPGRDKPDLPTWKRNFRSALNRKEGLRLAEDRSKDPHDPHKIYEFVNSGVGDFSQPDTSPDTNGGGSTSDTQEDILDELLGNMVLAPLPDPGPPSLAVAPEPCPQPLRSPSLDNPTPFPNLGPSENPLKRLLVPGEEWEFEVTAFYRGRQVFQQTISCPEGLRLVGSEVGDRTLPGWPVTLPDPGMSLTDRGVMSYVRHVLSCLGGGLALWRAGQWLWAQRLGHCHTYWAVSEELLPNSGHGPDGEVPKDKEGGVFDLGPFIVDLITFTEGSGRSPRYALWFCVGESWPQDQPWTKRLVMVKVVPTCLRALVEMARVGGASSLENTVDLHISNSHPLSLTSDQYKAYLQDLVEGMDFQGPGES
The experiment in a line: fluorescence anisotropy.

Data set [3] has as its target T3, IRF-3 2D (UniProt Q14653 1-427, S396D;S398D).
T3 sequence: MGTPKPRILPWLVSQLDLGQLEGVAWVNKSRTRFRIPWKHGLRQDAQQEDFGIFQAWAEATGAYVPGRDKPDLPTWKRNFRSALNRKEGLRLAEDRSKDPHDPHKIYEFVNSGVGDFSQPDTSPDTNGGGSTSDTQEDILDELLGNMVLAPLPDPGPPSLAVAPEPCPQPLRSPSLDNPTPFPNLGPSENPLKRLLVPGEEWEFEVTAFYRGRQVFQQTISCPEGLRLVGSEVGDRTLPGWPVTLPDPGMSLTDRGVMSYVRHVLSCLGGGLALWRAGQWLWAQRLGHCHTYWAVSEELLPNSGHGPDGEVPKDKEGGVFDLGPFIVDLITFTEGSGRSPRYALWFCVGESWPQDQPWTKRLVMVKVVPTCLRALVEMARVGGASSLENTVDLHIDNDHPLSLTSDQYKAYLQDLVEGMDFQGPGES
The experiment in a line: fluorescence anisotropy.

Data set [4] deals with the molecule itself. The experiment in a line: native gel or EMSA.
Data set [5] has as its target T1, IRF-3 5D. The experiment in a line: fluorescence anisotropy. This is another data set of the same source.

B1: PRDIII-PRDI 26-bp (dsDNA)
DNA 1: GCGAACTGAAAGGGAGAAGTGAAAGT
DNA 2: ACTTTCACTTCTCCCTTTCAGTTCGC
In the case of B1, the results for the Kd in data set [1], in data set [2] and in data set [3] were 5.8 ± 0.8 nM, 1230 ± 15 nM and 1300 ± 15 nM, respectively.

B2: IRF-3 5D phosphomimetic mutant (S396D, S398D, S402D, T404D and S405D) (natural protein)
chain: MGTPKPRILPWLVSQLDLGQLEGVAWVNKSRTRFRIPWKHGLRQDAQQEDFGIFQAWAEATGAYVPGRDKPDLPTWKRNFRSALNRKEGLRLAEDRSKDPHDPHKIYEFVNSGVGDFSQPDTSPDTNGGGSTSDTQEDILDELLGNMVLAPLPDPGPPSLAVAPEPCPQPLRSPSLDNPTPFPNLGPSENPLKRLLVPGEEWEFEVTAFYRGRQVFQQTISCPEGLRLVGSEVGDRTLPGWPVTLPDPGMSLTDRGVMSYVRHVLSCLGGGLALWRAGQWLWAQRLGHCHTYWAVSEELLPNSGHGPDGEVPKDKEGGVFDLGPFIVDLITFTEGSGRSPRYALWFCVGESWPQDQPWTKRLVMVKVVPTCLRALVEMARVGGASSLENTVDLHIDNDHPLDLDDDQYKAYLQDLVEGMDFQGPGES
As to B2, the “stoichiometry N” value in data set [4] came to 2.

B3: PRDI 13-bp (dsDNA)
DNA 1: GAGAAGTGAAAGT
DNA 2: ACTTTCACTTCTC
Turning to B3, the Kd stood at 800 ± 17 nM in data set [2], 900 ± 15 nM in data set [3] and 1200 ± 20 nM in data set [5].

Source of the values: publication PMC1920236 (Nucleic Acids Research, 2007).
